# Laboratory results taken from US6942981.
# Ends that are not written are not given here. * marks the point of attachment. Biotin = O=C1N[C@H]2[C@H](CS[C@H]2CCCCC(=O)*)N1
# T1: GST-NeDLG PDZ domains 1-2 fusion protein (Mus musculus (Mouse), UniProt P70175 147-332)
# T1 construct: also called NeDLG1; not shown: glutathione S-transferase (GST) encoded by pGEX-3X
# T1 chain: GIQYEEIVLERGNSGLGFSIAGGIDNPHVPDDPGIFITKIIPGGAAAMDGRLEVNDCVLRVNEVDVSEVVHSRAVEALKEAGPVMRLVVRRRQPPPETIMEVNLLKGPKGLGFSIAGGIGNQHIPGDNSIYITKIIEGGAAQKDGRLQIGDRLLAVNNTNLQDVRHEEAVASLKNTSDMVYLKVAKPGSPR
# T2: GST-41.8 kD (hypothetical 41.8 kD protein) PDZ domain fusion protein (Mus musculus (Mouse), UniProt Q9EQZ7 682-763)
# T2 construct: not shown: glutathione S-transferase (GST) encoded by pGEX-3X
# T2 sequence: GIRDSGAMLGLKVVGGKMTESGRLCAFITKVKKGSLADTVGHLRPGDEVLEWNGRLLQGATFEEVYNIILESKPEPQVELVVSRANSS
# T3: GST-MPP1 PDZ domain fusion protein (Homo sapiens (Human), UniProt Q00013 67-152)
# T3 construct: also called 55 Kd erythrocyte membrane protein; not shown: glutathione S-transferase (GST) encoded by pGEX-3X
# T3 sequence: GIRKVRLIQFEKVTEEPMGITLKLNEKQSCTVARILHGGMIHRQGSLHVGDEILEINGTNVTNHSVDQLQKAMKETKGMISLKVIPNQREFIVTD
# T4: GST-DVL1 PDZ domain fusion protein (human)
# T4 construct: also called human dishevelled segment polarity protein homolog; not shown: glutathione S-transferase (GST) encoded by pGEX-3X
# T4 chain: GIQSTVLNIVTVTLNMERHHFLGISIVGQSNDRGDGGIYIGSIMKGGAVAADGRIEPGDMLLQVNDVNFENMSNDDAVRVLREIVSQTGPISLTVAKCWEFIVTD
# T5: GST-TAX2 PDZ domain fusion protein (human, UniProt O14908 129-216)
# T5 construct: not shown: glutathione S-transferase (GST) encoded by pGEX-3X
# T5 chain: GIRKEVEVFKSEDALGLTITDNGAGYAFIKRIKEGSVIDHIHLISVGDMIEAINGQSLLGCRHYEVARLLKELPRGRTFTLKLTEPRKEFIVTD
# T6: GST-SYN1a (alpha1-syntrophin) PDZ domain fusion protein (Homo sapiens (Human), UniProt Q13424 84-179)
# T6 construct: also called SYN 1 α; not shown: glutathione S-transferase (GST) encoded by pGEX-3X
# T6 sequence: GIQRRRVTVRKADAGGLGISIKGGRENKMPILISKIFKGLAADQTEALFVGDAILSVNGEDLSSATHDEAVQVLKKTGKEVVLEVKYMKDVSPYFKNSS
# T7: GST-LIMK2 PDZ domain fusion protein (human, UniProt P53671 147-237)
# T7 construct: also called human LIM domain kinase 2; not shown: glutathione S-transferase (GST) encoded by pGEX-3X
# T7 sequence: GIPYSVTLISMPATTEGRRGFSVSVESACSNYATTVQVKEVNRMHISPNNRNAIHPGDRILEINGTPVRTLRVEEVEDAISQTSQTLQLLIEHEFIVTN
# T8: GST-MINT3 PDZ domain fusion protein (human)
# T8 construct: also called human MINT3; not shown: glutathione S-transferase (GST) encoded by pGEX-3X
# T8 chain: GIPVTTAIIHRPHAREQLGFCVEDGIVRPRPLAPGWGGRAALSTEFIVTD
# T9: GST-MPP2 PDZ domain fusion protein
# T9 construct: also called maguk p55 subfamily member 2 (DLG2); MMP2; not shown: glutathione S-transferase (GST) encoded by pGEX-3X
# T9 chain: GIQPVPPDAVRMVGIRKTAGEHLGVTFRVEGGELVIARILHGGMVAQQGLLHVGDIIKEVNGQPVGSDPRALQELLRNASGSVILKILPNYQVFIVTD
# B1: CD95 (Apo-1/Fas) C-terminal peptide AA13L (peptide)
# peptide: Biotin-KDITSDSENSNFRNEIQSLV
# B2: CLASP-2 C-terminal peptide AA2L (peptide)
# peptide: Biotin-ISGTPTSTMVHGMTSSSSVV
# B3: CDW128B (IL8RB) C-terminal peptide AA29.2L (peptide)
# peptide: Biotin-KDSRPSFVGSSSGHTSTTL
# B4: KV1.3 C-terminal peptide AA33L (peptide)
# peptide: Biotin-TTNNNPNSAVNIKKIFTDV
# B5: DNAM-1 C-terminal peptide AA22L (peptide)
# peptide: Biotin-TREDIYVNYPTFSRRPKTRV
# B6: CDW128A (IL8RA) C-terminal peptide AA29.1L (peptide)
# peptide: Biotin-ARHRVTSYTSSSVNVSSNL
# Biological target: T1, GST-NeDLG PDZ domains 1-2 fusion protein
# Assay: G assay titration of biotinylated peptide on immobilized GST-PDZ, saturation fit (apparent affinity)
# Excerpt: FIGS. 2A and 2B show the Apparent Affinity Determination for PDZ-Ligand Interactions. […] The binding to GST alone (<0.2 OD units) was subtracted from the binding to the fusion proteins to obtain the signal at each peptide concentration.
row,Binder,Kd
1,B1,54 µM
2,B2,7.5 µM

# Biological target: T1, GST-NeDLG PDZ domains 1-2 fusion protein
# Assay: A and G assays
row,Binder,binding result
1,B3,binds
2,B4,binds

# Biological target: T1, GST-NeDLG PDZ domains 1-2 fusion protein
# Assay: A assay
row,Binder,binding result
1,B5,binds
2,B6,binds

# Biological target: T2, GST-41.8 kD (hypothetical 41.8 kD …)
# Assay: A assay
row,Binder,binding result
1,B2,binds

# Biological target: T3, GST-MPP1 PDZ domain fusion protein
# Assay: A assay
row,Binder,binding result
1,B5,binds

# Biological target: T4, GST-DVL1 PDZ domain fusion protein
# Assay: A assay
row,Binder,binding result
1,B4,binds

# Biological target: T5, GST-TAX2 PDZ domain fusion protein
# Assay: A/G assays
row,Binder,binding result
1,B3,no binding
2,B1,no binding
3,B5,no binding
4,B4,no binding
5,B2,no binding
6,B6,no binding

# Biological target: T10, GST-NOS1 PDZ domain fusion protein (human, UniProt P29475 11-101)
# T10 construct: also called human neuronal nitric oxide synthase; not shown: glutathione S-transferase (GST) encoded by pGEX-3X
# T10 sequence (P29475 other isoform, or with tags, fused parts or gaps): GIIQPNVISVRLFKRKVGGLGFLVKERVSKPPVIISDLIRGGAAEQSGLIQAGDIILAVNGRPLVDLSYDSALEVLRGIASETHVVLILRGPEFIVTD
# Assay: A/G assays
row,Binder,binding result
1,B5,no binding

# Biological target: T6, GST-SYN1a (alpha1-syntrophin) PDZ …
# Assay: A/G assays
row,Binder,binding result
1,B3,no binding
2,B1,no binding
3,B5,no binding
4,B4,no binding
5,B2,no binding
6,B6,no binding

# Biological target: T7, GST-LIMK2 PDZ domain fusion protein
# Assay: A/G assays
row,Binder,binding result
1,B3,no binding
2,B1,no binding
3,B5,no binding
4,B4,no binding
5,B2,no binding
6,B6,no binding

# Biological target: T8, GST-MINT3 PDZ domain fusion protein
# Assay: A/G assays
row,Binder,binding result
1,B3,no binding
2,B1,no binding
3,B5,no binding
4,B4,no binding
5,B2,no binding
6,B6,no binding

# Biological target: T4, GST-DVL1 PDZ domain fusion protein
# Assay: A/G assays
row,Binder,binding result
1,B3,no binding
2,B1,no binding
3,B5,no binding
4,B2,no binding
5,B6,no binding

# Biological target: T9, GST-MPP2 PDZ domain fusion protein
# Assay: A/G assays
row,Binder,binding result
1,B3,no binding
2,B1,no binding
3,B4,no binding
4,B2,no binding
5,B6,no binding

# Biological target: T9, GST-MPP2 PDZ domain fusion protein
# Assay: G assay
row,Binder,binding result
1,B5,binds
